Source: article PMC9122904, “Insights into the client protein release mechanism of the ATP-independent chaperone Spy” (Nature Communications, 2022)
Positions count from the first letter of the chain named. In names and notes the source's numbering stands.

Tests used:
Assay in all cases: BLI; Octet RED96; client biotinylated and loaded on streptavidin sensors; Spy or Spy variant in solution at 0.25, 0.5, 1, 1.5 and 2 μM; 40 mM HEPES, 150 mM NaCl, pH 7.5; Kd calculated as koff/kon
Details in all cases: both partners purified
Spy_(29-124) R50D [1] = molecular target: T1, Spy_(29-124) R50D (UniProt P77754 52-147, R50D)
T1 construct: source: E. coli BL21 (DE3), purified (Ni-NTA, cation exchange, SEC); not shown: His6, N-terminal, cleaved; SUMO, N-terminal, cleaved
T1 sequence (looked up): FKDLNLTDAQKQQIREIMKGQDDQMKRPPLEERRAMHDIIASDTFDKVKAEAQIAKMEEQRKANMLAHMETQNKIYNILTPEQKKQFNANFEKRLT

Spy_(29-124) R61D R62D [2] = molecular target: T2, Spy_(29-124) R61D R62D (UniProt P77754 52-147, R61D | R62D)
T2 construct: source: E. coli BL21 (DE3), purified (Ni-NTA, cation exchange, SEC); not shown: His6, N-terminal, cleaved; SUMO, N-terminal, cleaved
T2 sequence (looked up): T1 sequence (looked up) with D22R, R33D, R34D

Spy_(29-124) K75D [3] = molecular target: T3, Spy_(29-124) K75D (UniProt P77754 52-147, K75D)
T3 construct: source: E. coli BL21 (DE3), purified (Ni-NTA, cation exchange, SEC); not shown: His6, N-terminal, cleaved; SUMO, N-terminal, cleaved
T3 sequence (looked up): T1 sequence (looked up) with D22R, K47D

Spy_(29-124) K121D R122D [4] = molecular target: T4, Spy_(29-124) K121D R122D (UniProt P77754 52-147, K121D | R122D)
T4 construct: source: E. coli BL21 (DE3), purified (Ni-NTA, cation exchange, SEC); not shown: His6, N-terminal, cleaved; SUMO, N-terminal, cleaved
T4 sequence (looked up): T1 sequence (looked up) with D22R, K93D, R94D

Spy_(29-124) R43D = molecular target: T5, Spy_(29-124) R43D (UniProt P77754 52-147, R43D)
T5 construct: source: E. coli BL21 (DE3), purified (Ni-NTA, cation exchange, SEC); not shown: His6, N-terminal, cleaved; SUMO, N-terminal, cleaved
T5 sequence (looked up): T1 sequence (looked up) with R15D, D22R

Spy_(29-124) R50D [5] = molecular target: T1, Spy_(29-124) R50D; remark: listed apart in the source
Spy_(29-124) K54D R55D = molecular target: T6, Spy_(29-124) K54D R55D (UniProt P77754 52-147, K54D | R55D)
T6 construct: source: E. coli BL21 (DE3), purified (Ni-NTA, cation exchange, SEC); not shown: His6, N-terminal, cleaved; SUMO, N-terminal, cleaved
T6 sequence (looked up): T1 sequence (looked up) with D22R, K26D, R27D

Spy_(29-124) R61D R62D [6] = molecular target: T2, Spy_(29-124) R61D R62D; remark: listed apart in the source
Spy_(29-124) K75D [7] = molecular target: T3, Spy_(29-124) K75D; remark: listed apart in the source
Spy_(29-124) R89D = molecular target: T7, Spy_(29-124) R89D (UniProt P77754 52-147, R89D)
T7 construct: source: E. coli BL21 (DE3), purified (Ni-NTA, cation exchange, SEC); not shown: His6, N-terminal, cleaved; SUMO, N-terminal, cleaved
T7 sequence (looked up): T1 sequence (looked up) with D22R, R61D

Spy_(29-124) H96D = molecular target: T8, Spy_(29-124) H96D (UniProt P77754 52-147, H96D)
T8 construct: source: E. coli BL21 (DE3), purified (Ni-NTA, cation exchange, SEC); not shown: His6, N-terminal, cleaved; SUMO, N-terminal, cleaved
T8 sequence (looked up): T1 sequence (looked up) with D22R, H68D

Spy_(29-124) K121D R122D [8] = molecular target: T4, Spy_(29-124) K121D R122D; remark: listed apart in the source

koff (Spy_(29-124) R50D [1]): 0.477 s⁻¹ | koff (Spy_(29-124) R61D R62D [2]): 0.262 s⁻¹ | koff (Spy_(29-124) K75D [3]): 0.0712 s⁻¹ | koff (Spy_(29-124) K121D R122D [4]): 0.349 s⁻¹ | Kd (Spy_(29-124) R43D): 3070 nM | Kd (Spy_(29-124) R50D [5]): 2680 nM | Kd (Spy_(29-124) K54D R55D): 1900 nM | Kd (Spy_(29-124) R61D R62D [6]): 3540 nM | Kd (Spy_(29-124) K75D [7]): 456 nM | Kd (Spy_(29-124) R89D): 2610 nM | Kd (Spy_(29-124) H96D): 1260 nM | Kd (Spy_(29-124) K121D R122D [8]): 1850 nM
B1: Im7 H40W L53A I54A (natural protein)
chain: MELKNSISDYTEAEFVQLLKEIEKENVAATDDVLDVLLEWFVKITEHPDGTDAAYYPSDNRDDSPEGIVKEIKEWRAANGKPGFKQG
modifications: biotin (EZ-link NHS-biotin, 1:1 molar ratio of biotin to protein)
notes: Im7 (colicin E7 immunity protein) with H40W L53A I54A; Spy was made with an N-terminal His6-SUMO tag that was cleaved; also called Im7AAW; partially folded client; source: purified by a similar procedure to Spy
